Values belong to the sequence of their own block, whether it stands above or below them.
How the values were obtained:
HLA-A*02:01 [1] = experiment: IEDB peptide-MHC binding, purified MHC/competitive/fluorescence; ≥ and ≤ were set here for values at or beyond the usual limits of such assays
HLA-A*24:02 [2] = experiment: as above
HLA-B*44:02 = experiment: IEDB peptide-MHC binding, purified MHC/competitive/radioactivity; filed as Kd, often an IC50 or EC50 that approximates it; ≥ and ≤ were set here for values at or beyond the usual limits of such assays
HLA-B*40:01 = experiment: as above
HLA-B*44:03 = experiment: as above
HLA-B*51:01 = experiment: as above; conditions: source organism: Dengue virus 1 Singapore/S275/1990
HLA-A*23:01 = experiment: as above
HLA-B*08:01 = experiment: as above
HLA-A*01:01 = experiment: as above
HLA-A*02:01 [3] = experiment: as above
HLA-A*24:02 [4] = experiment: as above
HLA-A*30:02 = experiment: as above; conditions: source organism: Dengue virus 4 Philippines/H241/1956
HLA-A*03:01 = experiment: IEDB peptide-MHC binding, purified MHC/direct/fluorescence; filed as Kd, often an IC50 or EC50 that approximates it; ≥ and ≤ were set here for values at or beyond the usual limits of such assays; conditions: source organism: SARS-CoV1
HLA-A*31:01 = experiment: as above; conditions: source organism: SARS-CoV1
HLA-B*27:05 = experiment: as above; conditions: source organism: SARS-CoV1
HLA-A*11:01 = experiment: as above; conditions: source organism: SARS-CoV1
HLA-A*30:01 = experiment: IEDB peptide-MHC binding, purified MHC/competitive/radioactivity; filed as Kd, often an IC50 or EC50 that approximates it; ≥ and ≤ were set here for values at or beyond the usual limits of such assays
HLA-A*02:06 = experiment: as above; conditions: source organism: Dengue virus 2 Jamaica/1409/1983
HLA-A*26:01 = experiment: as above; conditions: source organism: Dengue virus 3 Martinique/1243/1999
[5] = source organism: Zaire ebolavirus
[6] = source organism: Dengue virus 3 Martinique/1243/1999
[7] = source organism: Vaccinia virus Copenhagen
[8] = source organism: Dengue virus 4 Philippines/H241/1956
[9] = source organism: Dengue virus 2 Jamaica/1409/1983
[10] = source organism: Dengue virus 1 Brazil/97-11/1997
[11] = source organism: Vaccinia virus WR
[12] = source organism: Sudan ebolavirus
[13] = source organism: Lassa virus Josiah
[14] = source organism: Dengue virus 4 Thailand/0348/1991

Sequence: MDSRPQKIW
IC50 (HLA-A*02:01 [1]; [5]): ≥ 191000 nM
IC50 (HLA-A*24:02 [2]; [5]): 67800 nM

Sequence: METLLLLGLM
Kd (HLA-B*44:02; [6]): 62.4 nM
Kd (HLA-B*40:01; [6]): 1020 nM
Kd (HLA-B*44:03; [6]): 2650 nM

Sequence: MFLIAENKI
Kd (HLA-B*51:01): 2760 nM
Kd (HLA-A*23:01; source organism: Dengue virus 1 Singapore/S275/1990): 913 nM

Sequence: MMRNRTKPI
Kd (HLA-B*08:01; [7]): 1.49 nM

Sequence: MTDTTPFGQ
Kd (HLA-A*01:01; [8]): 3770 nM

Sequence: NEMILLTMK
Kd (HLA-B*44:02; [6]): 824 nM

Sequence: NLLTTPKFT
Kd (HLA-A*02:01 [3]; source organism: Human alphaherpesvirus 1 strain 17): 500 nM

Sequence: NTSANLSLA
Kd (HLA-A*01:01; [8]): 1350 nM

Sequence: NVWEVEDYGF
Kd (HLA-A*23:01; [6]): 175 nM

Sequence: NWLNNNTQF
Kd (HLA-A*23:01; [9]): 716 nM
Kd (HLA-A*24:02 [4]; [9]): 88 nM

Sequence: PLEEELPR
Kd (HLA-A*02:01 [3]; source organism: Hepatitis B virus): ≥ 25000 nM

Sequence: PSSVAARGY
Kd (HLA-A*30:02): 3230 nM
Kd (HLA-A*01:01; [8]): 200 nM

Sequence: PTAWQSVGH
IC50 (HLA-A*02:01 [1]; [5]): ≥ 264000 nM
IC50 (HLA-A*24:02 [2]; [5]): 28700 nM

Sequence: PVYQVNNLE
IC50 (HLA-A*24:02 [2]; [5]): ≥ 100000 nM

Sequence: QAFTFSPTYK
Kd (HLA-A*02:01 [3]; source organism: Hepatitis B virus subtype adw2): ≥ 35000 nM

Sequence: QEVPFCSHHF
Kd (HLA-B*44:02; [8]): 12.2 nM
Kd (HLA-B*40:01; [8]): 4870 nM
Kd (HLA-B*44:03; [8]): 180 nM

Sequence: QMQRKHGGML
Kd (HLA-B*08:01; [10]): 436 nM

Sequence: QREIFSAWI
IC50 (HLA-A*24:02 [2]; source organism: Variola virus): ≥ 76300 nM

Sequence: REDLWCGSL
Kd (HLA-B*40:01; [8]): 2.35 nM

Sequence: REEEEAGVL
Kd (HLA-B*40:01; [9]): 3.23 nM

Sequence: REIVVPCRNQ
Kd (HLA-B*40:01; [10]): 228 nM

Sequence: RHYSASFKK
Kd (HLA-A*03:01): 341 nM
Kd (HLA-A*31:01): 1250 nM
Kd (HLA-B*27:05): 282 nM
Kd (HLA-A*11:01): 705 nM

Sequence: RRVTRKHMIL
Kd (HLA-B*08:01; [8]): 64 nM

Sequence: RTKITSLPL
Kd (HLA-A*30:01; [11]): 0.0866 nM

Sequence: RTLRVLNLV
Kd (HLA-A*30:01; [9]): 222 nM
Kd (HLA-A*02:06): 10.2 nM

Sequence: RYVHKVSGT
IC50 (HLA-A*02:01 [1]; [5]): ≥ 90900 nM
IC50 (HLA-A*24:02 [2]; [5]): 6660 nM

Sequence: SEMIIPKNFA
Kd (HLA-B*44:02; [9]): 12 nM
Kd (HLA-B*40:01; [9]): 8440 nM
Kd (HLA-B*44:03; [9]): 25 nM

Sequence: SGVLWDTPSP
Kd (HLA-A*30:01; [10]): ≥ 70400 nM

Sequence: SIHEKFWPL
Kd (HLA-B*08:01; [11]): 1.36 nM

Sequence: SMLSIFNIV
Kd (HLA-B*08:01; [11]): ≥ 77700 nM

Sequence: SPKERLPYI
Kd (HLA-B*08:01; [11]): 1040 nM

Sequence: SSQMTSTFI
IC50 (HLA-A*02:01 [1]; [7]): ≥ 72600 nM
IC50 (HLA-A*24:02 [2]; [7]): ≥ 70900 nM

Sequence: STANVSLAA
Kd (HLA-A*01:01; [6]): 2030 nM

Sequence: SVKCQSPPS
Kd (HLA-A*30:01; [11]): 16.8 nM

Sequence: SYLAGAGLLF
Kd (HLA-A*23:01; [9]): 0.709 nM
Kd (HLA-A*24:02 [4]; [9]): 6.22 nM

Sequence: TEMGRLPTFM
Kd (HLA-B*44:02; [9]): 11.6 nM
Kd (HLA-B*44:03; [9]): 167 nM

Sequence: TISGVLWQV
Kd (HLA-A*02:01 [3]; source organism: Hepatitis C virus subtype 2b): 35 nM

Sequence: TSFFLWVII
IC50 (HLA-A*02:01 [1]; [5]): ≥ 503000 nM
IC50 (HLA-A*24:02 [2]; [5]): ≥ 131000 nM

Sequence: TTRDKLFNK
Kd (HLA-A*30:01; [11]): 123 nM

Sequence: TVIEHLERL
Kd (HLA-A*26:01): 81.1 nM

Sequence: TVTGILGSL
IC50 (HLA-A*02:01 [1]; [12]): 22500 nM
IC50 (HLA-A*24:02 [2]; [12]): ≥ 76800 nM

Sequence: TVYAKFASL
Kd (HLA-B*08:01; [11]): 1.64 nM

Kd (HLA-A*02:01 [3]; source organism: Homo sapiens): 4.7 nM
Sequence: VLLGVKLSGV

Sequence: VLQTFMRMA
Kd (HLA-A*02:01 [3]; [13]): ≥ 5000 nM

Sequence: VWIEDNPNMI
Kd (HLA-A*23:01; [14]): 472 nM
Kd (HLA-A*24:02 [4]; [14]): 546 nM

Sequence: WLVSNGSYL
Kd (HLA-A*02:01 [3]; [13]): 1790 nM

Sequence: YENLKYTVII
Kd (HLA-B*40:01; [6]): 2.82 nM

Sequence: YPNVCIFGN
IC50 (HLA-A*24:02 [2]; source organism: Vaccinia virus): 35500 nM

Sequence: YWPVMNHKN
IC50 (HLA-A*24:02 [2]; [5]): 7120 nM

From the Immune Epitope Database (IEDB)
